Assays:
[1] = molecular target: T1, recombinant human GPC1 protein (R&D Systems) (human, UniProt P35052 24-530); assay: SPR (Biacore 8K); antibody captured by anti-human IgG (Fc) on a CM5 chip, recombinant human GPC1 flowed over
T1 construct: Bought recombinant protein (R&D Systems); also called human GPC-1 antigen; Glypican-1
T1 sequence: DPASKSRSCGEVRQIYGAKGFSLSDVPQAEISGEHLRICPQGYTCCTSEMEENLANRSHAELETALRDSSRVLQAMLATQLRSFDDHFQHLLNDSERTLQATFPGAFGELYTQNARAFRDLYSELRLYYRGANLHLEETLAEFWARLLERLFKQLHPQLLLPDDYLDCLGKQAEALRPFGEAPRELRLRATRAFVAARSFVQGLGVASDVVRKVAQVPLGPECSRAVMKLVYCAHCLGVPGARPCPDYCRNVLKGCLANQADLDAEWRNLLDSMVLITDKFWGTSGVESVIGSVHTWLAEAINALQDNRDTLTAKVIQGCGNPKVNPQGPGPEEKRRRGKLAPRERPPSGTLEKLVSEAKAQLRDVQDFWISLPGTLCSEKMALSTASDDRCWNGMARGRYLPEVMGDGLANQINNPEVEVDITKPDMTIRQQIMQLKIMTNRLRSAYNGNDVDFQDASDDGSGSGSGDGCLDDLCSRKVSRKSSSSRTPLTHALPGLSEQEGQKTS
Procedure: The mouse anti-human-GPC1 monoclonal antibody was humanized (subclass: IgG4), and the obtained twenty clones (T1, T2, T3, T7, T8, T10, T11, T22, T26, T28, T29, T31, T32, T33, T34, T36, T43, T56, T57, T59) were prepared. An anti-human IgG (Fc) was immobilized on an sCM5 sensor chip (GE Healthcare) using Human antibody capture kit (GE Healthcare), and the affinity of each of these clones to a recombinant human GPC1 protein (R&D Systems) was measured using Biacore (registered trademark) 8K (GE Healthcare).

[2] = molecular target: T2, human GPC1 on the surface of GPC1-positive cancer cells (TE8, TE14, BxPC-3) (human, UniProt P35052 24-530); assay: cell-based or functional assay
T2 sequence: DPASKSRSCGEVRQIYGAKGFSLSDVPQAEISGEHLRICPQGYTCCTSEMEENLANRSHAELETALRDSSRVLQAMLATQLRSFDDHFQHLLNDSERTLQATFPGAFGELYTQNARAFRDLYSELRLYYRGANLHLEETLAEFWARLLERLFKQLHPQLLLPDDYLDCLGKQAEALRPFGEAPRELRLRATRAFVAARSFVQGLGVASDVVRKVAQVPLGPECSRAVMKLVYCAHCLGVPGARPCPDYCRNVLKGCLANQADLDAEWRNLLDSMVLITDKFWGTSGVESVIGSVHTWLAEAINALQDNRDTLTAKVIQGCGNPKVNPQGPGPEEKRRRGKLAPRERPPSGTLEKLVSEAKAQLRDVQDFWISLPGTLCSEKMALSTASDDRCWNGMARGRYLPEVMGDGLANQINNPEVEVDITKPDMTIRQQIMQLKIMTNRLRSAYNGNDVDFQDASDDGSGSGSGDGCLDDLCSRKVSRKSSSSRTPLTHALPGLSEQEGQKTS

Row | Kd [1] [nM] | koff [1] [s⁻¹] | kon [1] [M⁻¹ s⁻¹] | Binder | IC50 of cytotoxicity on TE14 cells (ATP cell viability, 144 h) with MMAF-linked anti-human-IgG Fab as secondary antibody [2] [nM]
1 | 5.62 | 0.00134 | 238000 | humanized anti-GPC1 monoclonal antibody clone T1 (antibody, human IgG4 S228P, kappa, V domains shown, IgG) VH: QVQLVQSGAEVKKPGASVKVSCKASGYTFTGYYMHWVRQAPGQGLEWMGEINPSTGDTTYNQKFKARVTMTRDTSTSTVYMELSSLRSEDTAVYYCAREKRDDGVFAYWGQGTLVTVSS VL: DIVMTQSPSFLSASVGDRVTITCRASQGISSYLVWYQQKPGKAPKLLIYSASVLQSGVPSRFSGRGYGTDFTLTISSLQPEDFATYYCQQSFSIPPVTFGGGTKVEIKR | 0.0399
2 | 62.4 | 0.0106 | 169000 | humanized anti-GPC1 monoclonal antibody clone T43 (antibody, human IgG4 S228P, kappa, V domains shown, IgG) VH: QVQLVQSGAEVKKPGASVKVSCKASGYTFTGYYMHWVRQAPGQGLEWMGEINPSTGDTTYNQKFKARVTMTRDTSTSTVYMELSSLRSEDTAVYYCAREKRDDGVFAYWGQGTLVTVSS VL: DIVMTQSPSSLSASVGDRVTITCRASQGIRSALAWYQQKPGKAPKLLIYDASNLQSGVPSRFSGSGSGTDFTLTISDVQAEDFGTYYCQQSFGPPRTFGQGTRLEIKR | 0.37
3 | 3.11 | 0.000713 | 229000 | humanized anti-GPC1 monoclonal antibody clone T3 (antibody, human IgG4 S228P, kappa, V domains shown, IgG) VH: QVQLVQSGAEVKKPGASVKVSCKASGYTFTGYYMHWVRQAPGQGLEWMGEINPSTGDTTYNQKFKARVTMTRDTSTSTVYMELSSLRSEDTAVYYCAREKRDDGVFAYWGQGTLVTVSS VL: DIVMTQSPSSVSASVGDRVSITCRASEHINGWLAWYQQIPGKAPRILISSASILQSGAPSRFSGSGFGTDFTLTISSVQPEDFATYYCQQAKSYPLTFGGGTKVEIKR | 0.0526
4 | – | – | – | humanized anti-GPC1 monoclonal antibody clone T26 (antibody, human IgG4 S228P, kappa, V domains shown) VH: QVQLVQSGAEVKKPGASVKVSCKASGYTFTGYYMHWVRQAPGQGLEWMGEINPSTGDTTYNQKFKARVTMTRDTSTSTVYMELSSLRSEDTAVYYCAREKRDDGVFAYWGQGTLVTVSS VL: DVVMTQSPSSLSASVGERVTITCRASQSISSYLNWYQQKPGKAPKLLIYAASSRATGIPHRYSGSGSGTVFTLTISRLEPEDFATYYCQQFHSYPITFGQGTRLEIKR | 0.803
5 | 272 | 0.0506 | 186000 | humanized anti-GPC1 monoclonal antibody clone T11 (antibody, human IgG4 S228P, kappa, V domains shown, IgG) VH: QVQLVQSGAEVKKPGASVKVSCKASGYTFTGYYMHWVRQAPGQGLEWMGEINPSTGDTTYNQKFKARVTMTRDTSTSTVYMELSSLRSEDTAVYYCAREKRDDGVFAYWGQGTLVTVSS VL: AIRMTQSPSSLSASVGDRVTITCRASRSISTYLHWYQQKAGKAPKLLIYSAYNLQSGVPSRFSGSGSGTDFTLTISSLQPEDFATYYCQQSYSTPYTFGQGTKVEIKR | 0.121
6 | 271 | 0.0539 | 198000 | humanized anti-GPC1 monoclonal antibody clone T31 (antibody, human IgG4 S228P, kappa, V domains shown, IgG) VH: QVQLVQSGAEVKKPGASVKVSCKASGYTFTGYYMHWVRQAPGQGLEWMGEINPSTGDTTYNQKFKARVTMTRDTSTSTVYMELSSLRSEDTAVYYCAREKRDDGVFAYWGQGTLVTVSS VL: AIQMTQSPATLSLSPGQRATLSCRASQSVSNYLAWYQQKPGQAPRLLIYDVSNRASGIPARFSGSGSGTDFTLTISSLEPEDFAIYYCQQRSNWPLTFGQGTKVDIKR | 0.688
7 | 290 | 0.0603 | 208000 | humanized anti-GPC1 monoclonal antibody clone T32 (antibody, human IgG4 S228P, kappa, V domains shown, IgG) VH: QVQLVQSGAEVKKPGASVKVSCKASGYTFTGYYMHWVRQAPGQGLEWMGEINPSTGDTTYNQKFKARVTMTRDTSTSTVYMELSSLRSEDTAVYYCAREKRDDGVFAYWGQGTLVTVSS VL: DVVMTQSPGTLSLSPGERATLSCSASQSVSSNLAWYQQKPGQAPRLLIYGTSSRATGVPARFSGSGSGTEFTLTISSLQSEDFAAYYCQQYNSWPLTFGGGTKVEIKR | 0.888
8 | 218 | 0.0506 | 232000 | humanized anti-GPC1 monoclonal antibody clone T22 (antibody, human IgG4 S228P, kappa, V domains shown, IgG) VH: QVQLVQSGAEVKKPGASVKVSCKASGYTFTGYYMHWVRQAPGQGLEWMGEINPSTGDTTYNQKFKARVTMTRDTSTSTVYMELSSLRSEDTAVYYCAREKRDDGVFAYWGQGTLVTVSS VL: AIQMTQSPASLSASLGDRITITCRTSQTVAGYLNWYQQTPGNAPKLLIYSASNLQSGVPSRFSGSGSGRDFSLTISSLQSEDSATYYCQHSYSTPYTFGQGTKVEIKR | 0.745
9 | 21.7 | 0.00679 | 313000 | humanized anti-GPC1 monoclonal antibody clone T28 (antibody, human IgG4 S228P, kappa, V domains shown, IgG) VH: QVQLVQSGAEVKKPGASVKVSCKASGYTFTGYYMHWVRQAPGQGLEWMGEINPSTGDTTYNQKFKARVTMTRDTSTSTVYMELSSLRSEDTAVYYCAREKRDDGVFAYWGQGTLVTVSS VL: DIQMTQSPSSLSASLGEMVTITCRASESIHSYLNWYQQKPGKAPNLLIYDASNLESGVPSRFSGSGYGTDFTLTISSLQPEDFATYYCQQSYGPPITFGQGTRLEIKR | 0.153
10 | 462 | 0.0738 | 160000 | humanized anti-GPC1 monoclonal antibody clone T33 (antibody, human IgG4 S228P, kappa, V domains shown, IgG) VH: QVQLVQSGAEVKKPGASVKVSCKASGYTFTGYYMHWVRQAPGQGLEWMGEINPSTGDTTYNQKFKARVTMTRDTSTSTVYMELSSLRSEDTAVYYCAREKRDDGVFAYWGQGTLVTVSS VL: DVVMTQSPATLSVPPGDRATLSCRASQSVSSRLAWYQQKPGQAPKLLIYGASTRATGIPARFSGSWSGTEFTLTVSSLQSEDSAVYYCQQYNDWPRYTFGQGTKLEIKR | 1.86
11 | 324 | 0.0664 | 205000 | humanized anti-GPC1 monoclonal antibody clone T29 (antibody, human IgG4 S228P, kappa, V domains shown, IgG) VH: QVQLVQSGAEVKKPGASVKVSCKASGYTFTGYYMHWVRQAPGQGLEWMGEINPSTGDTTYNQKFKARVTMTRDTSTSTVYMELSSLRSEDTAVYYCAREKRDDGVFAYWGQGTLVTVSS VL: DIVMTQSPSSLSASVGDRVTITCRASQDISSYLNWYQQKPGEAPKLLVYGASNLQRGVPPGFRGSGSGTDFTLTINNLQPEDFATYYCQQSSTSPITFGQGTRLEIKR | 2.18
12 | 302 | 0.0593 | 197000 | humanized anti-GPC1 monoclonal antibody clone T59 (antibody, human IgG4 S228P, kappa, V domains shown, IgG) VH: QVQLVQSGAEVKKPGASVKVSCKASGYTFTGYYMHWVRQAPGQGLEWMGEINPSTGDTTYNQKFKARVTMTRDTSTSTVYMELSSLRSEDTAVYYCAREKRDDGVFAYWGQGTLVTVSS VL: EIVMTQSPSSLSASVGDRVTITCQASQHISNKLNWYQQKPGKAPKLLIYDASNLETGVPSRFSGSGYGTDFTFTVSSLQPEDIATYYCQQYDNLPITFGQGTRLEIKR | 0.37
13 | 12 | 0.00411 | 343000 | humanized anti-GPC1 monoclonal antibody clone T7 (antibody, human IgG4 S228P, kappa, V domains shown, IgG) VH: QVQLVQSGAEVKKPGASVKVSCKASGYTFTGYYMHWVRQAPGQGLEWMGEINPSTGDTTYNQKFKARVTMTRDTSTSTVYMELSSLRSEDTAVYYCAREKRDDGVFAYWGQGTLVTVSS VL: AIQLTQSPSTLSASVGDRVTITCRASQSISSWLAWYQQKPGKAPKLLISDASNLASGVPLRFSGSGFGTHFTLTIDNLQPEDIATYSCQQYNNYPFTFGLGTKLEIKR | 0.0365
14 | 7.55 | 0.0015 | 199000 | humanized anti-GPC1 monoclonal antibody clone T10 (antibody, human IgG4 S228P, kappa, V domains shown, IgG) VH: QVQLVQSGAEVKKPGASVKVSCKASGYTFTGYYMHWVRQAPGQGLEWMGEINPSTGDTTYNQKFKARVTMTRDTSTSTVYMELSSLRSEDTAVYYCAREKRDDGVFAYWGQGTLVTVSS VL: EIVLTQSPSTLSASVGDRVTITCRASQSISSWLAWYQQIPGKAPRILISSASILQSGAPSRFSGSGFGTDFTLTISSVQPEDFATYYCQQAKSYPLTFGGGTKLEIKR | 0.0488
15 | 22.8 | 0.00393 | 172000 | humanized anti-GPC1 monoclonal antibody clone T34 (antibody, human IgG4 S228P, kappa, V domains shown, IgG) VH: QVQLVQSGAEVKKPGASVKVSCKASGYTFTGYYMHWVRQAPGQGLEWMGEINPSTGDTTYNQKFKARVTMTRDTSTSTVYMELSSLRSEDTAVYYCAREKRDDGVFAYWGQGTLVTVSS VL: VIWMTQSPSSVSASVGDRVTITCRASQAINGWLAWYQQKPGKAPRILIYSASTLQTGAPSRFSGSGFGTDFTLTISSVQPEDFATYYCQQAKSYPLTFGGGTKVEIKR | 0.0501
